# Source: the supplement of paper PMC10724198
# ± gives the standard deviation of the averaged measurements.
# Test system: Saccharomyces cerevisiae
# Experiment: protein stability index of tFT-peptide fusion (C-terminal peptide) (PSI (0-1 scale)); higher = more stable (slower turnover)
# Conditions: genetic background: wild type; temperature: 30 C
# Method: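 Multiplexed protein stability (MPS) profiling in S. cerevisiae. Random 12-aa peptides (tFT-X12 library) are fused to the C-terminus of a sfGFP-mCherry tandem fluorescent timer, after mCherry and a GGGS linker. Cells are FACS-sorted into 8 mCherry/sfGFP bins and deep-sequenced. The protein stability index (PSI) is the read-weighted bin average, scaled from 0 (unstable) to 1 (stable). Only peptides with >10 reads are reported; cells were grown at 30 °C in SC-His with glucose.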
# 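Note: PSI is a weighted mean of sequencing reads over stability bins, variants kept only with over 10 reads, mCherry proximal and sfGFP distal, peptide attached via GGGS linker.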
row,Sequence,protein stability index
1,FRKALRIQSVGS,0.6926 ± 0.0019
2,FRLAPPSVYDFV,0.7008 ± 0.002
3,FRLDRYLGGKIG,0.641 ± 0.063
4,FRNESLVAGKSG,0.717 ± 0.076
5,FRPPPTLLLRPH,0.676 ± 0.026
6,FRRHRHDVLTVR,0.599 ± 0.05
7,FRRRYGCLLRGE,0.6573 ± 0.004
8,FRSRFGPCLRSV,0.649 ± 0.027
9,FRTPASLSLPLS,0.676 ± 0.021
10,FSARCGGGLDWS,0.722 ± 0.038
11,FSASMSTIWQTG,0.602 ± 0.034
12,FSCKRMISKTGF,0.669 ± 0.035
13,FSFCRLPDSPSS,0.698 ± 0.026
14,FSFQTLPTPTSP,0.655 ± 0.06
15,FSGCVEIYWHWL,0.662 ± 0.011
16,FSGLNWLLCHSK,0.704 ± 0.015
17,FSGWVFAPFFFF,0.644 ± 0.048
18,FSHPCPLSGLYP,0.716 ± 0.015
19,FSHPLLRARRTW,0.656 ± 0.086
20,FSLGPSPLRPHA,0.611 ± 0.086
21,FSLLSSSSFFVL,0.591 ± 0.01
22,FSLPPNPQPKLL,0.741 ± 0.07
23,FSLSRLCFCFRS,0.529 ± 0.024
24,FSNFVYFFFRSS,0.666 ± 0.12
25,FSPPLGRFLLRH,0.707 ± 0.062
26,FSPSFGSLLVIC,0.556 ± 0.02

row,Sequence,protein stability index
1,FSPVSAPPTRVS,0.703 ± 0.042
2,FSRLLCPPSFSF,0.658 ± 0.0072
3,FSRVRNVLGLGG,0.73 ± 0.12
4,FSSAINSFAFQP,0.683 ± 0.026
5,FSSHGFSSFLLL,0.691 ± 0.084
6,FSSSMCLGMRLR,0.639 ± 0.096
7,FSSSSLFFSRTL,0.677 ± 0.052
8,FSVFFDFIIARF,0.632 ± 0.067
9,FSVFSCLVCSLD,0.575 ± 0.011
10,FSVWCDLFGFFC,0.674 ± 0.075
11,FTLRILSRPVIP,0.656 ± 0.046
12,FTQVIQQQRRVV,0.627 ± 0.067
13,FTSGESVCGGRV,0.698 ± 0.0026
14,FTSPLPPVAPPL,0.693 ± 0.03
15,FTVCVIYSKPSQ,0.5872 ± 0.0013
16,FTWFGAFLSCFV,0.61 ± 0.069
17,FVADRLIFGKSL,0.71 ± 0.044
18,FVASVGVGGGVG,0.58 ± 0.013
19,FVGAAALSVWGG,0.645 ± 0.0072
20,FVLADLVPILFS,0.7102 ± 0.0013
21,FVLLGVRGVAGW,0.709 ± 0.02
22,FVLSVDLSVEGS,0.585 ± 0.037
23,FVNKRRGCRELE,0.701 ± 0.0053
24,FVQSMGVGLGWG,0.694 ± 0.026
25,FVRPPHTTHPHP,0.681 ± 0.041
26,FVSFFPFPFLLL,0.482 ± 0.045

row,Sequence,protein stability index
1,FVSGLEMCRTCF,0.672 ± 0.025
2,FVSLVATASHWV,0.568 ± 0.033
3,FVSSFSCVGLVL,0.644 ± 0.08
4,FWGGGGGVGLAV,0.683 ± 0.063
5,FWMPKASALGAA,0.655 ± 0.019
6,FYPSRVPPLQSA,0.662 ± 0.056
7,FYREFNSSSVCT,0.788 ± 0.24
8,FYRPNLLNAGRL,0.715 ± 0.023
9,FYRWDTFRWTRG,0.683 ± 0.01
10,FYYAERGSVERQ,0.641 ± 0.0095
11,GACHNVGVGPLG,0.67 ± 0.024
12,GACPARGRFLRR,0.753 ± 0.086
13,GACSPQTNDSSR,0.709 ± 0.035
14,GADPPGHSSDDS,0.712 ± 0.11
15,GADTSRSYRIGL,0.757 ± 0.0085
16,GAFCGGSSVFYL,0.659 ± 0.01
17,GAFRQGYCLSGL,0.67 ± 0.025
18,GAGAHCVSWLSN,0.695 ± 0.0076
19,GAGDGRGRIEGR,0.674 ± 0.015
20,GAGGCNVGWRIR,0.7265 ± 0.0014
21,GAGKGWARWLVW,0.632 ± 0.041
22,GAGMAGEVVGDG,0.637 ± 0.026
23,GAGWCDGGRGGV,0.6747 ± 0.0014
24,GAGWLSWEGGGD,0.686 ± 0.04
25,GALLLVPFFWGE,0.668 ± 0.018
26,GAPLALSVSFPG,0.648 ± 0.014

row,Sequence,protein stability index
1,GAQSRQMRSLAQ,0.65 ± 0.11
2,GARAGLIDALLS,0.675 ± 0.021
3,GARGMGGLFFLG,0.728 ± 0.053
4,GARSRLFRWWVA,0.601 ± 0.012
5,GASDWVMLYWVV,0.584 ± 0.0098
6,GASGLRIIQVSW,0.671 ± 0.0098
7,GASGVYMLDAYA,0.632 ± 0.058
8,GASPRAYPLPPP,0.707 ± 0.032
9,GATGGAWGVWAG,0.676 ± 0.019
10,GAVARFRPCWPL,0.633 ± 0.011
11,GAVWLLFCGGVG,0.555 ± 0.024
12,GCFFQPRWSLLS,0.599 ± 0.0088
13,GCFLDLVFRSRI,0.668 ± 0.0074
14,GCFLRHAPALRF,0.735 ± 0.063
15,GCGSYELLRSAS,0.68 ± 0.012
16,GCLDGLGLPCLS,0.681 ± 0.079
17,GCLGDRVKSPIV,0.638 ± 0.068
18,GCPHGTLFVSLE,0.699 ± 0.065
19,GCRARKSRRTPT,0.664 ± 0.011
20,GCRCWGVRVGCV,0.5407 ± 0.003
21,GCRGEWGWVGRG,0.691 ± 0.017
22,GCSCFLAGAFVL,0.732 ± 0.038
23,GCSQGGRRSGNE,0.644 ± 0.029
24,GDFFQRVVGGGG,0.733 ± 0.16
25,GDFFVGLEWRDI,0.622 ± 0.13
26,GDFILLCDFDPI,0.712 ± 0.09

row,Sequence,protein stability index
1,GDFSLCPMFCAP,0.677 ± 0.071
2,GDGSNVSLFILF,0.784 ± 0.13
3,GDGWLSGVPEEL,0.74 ± 0.017
4,GDKKYRYGNKVF,0.737 ± 0.086
5,GDRRRVFGSEQR,0.662 ± 0.088
6,GDYKESAFRMDG,0.761 ± 0.043
7,GEAWWLRGGGER,0.757 ± 0.03
8,GEEGRNEQKQDA,0.7249 ± 0.0011
9,GEGERVCVGSEF,0.745 ± 0.033
10,GEGLWGGRGRRW,0.687 ± 0.046
11,GEGPTGAKQDYV,0.6239 ± 0.0023
12,GEGRGLCNLVAG,0.65 ± 0.025
13,GEGTERLGKSTR,0.651 ± 0.046
14,GEKQVDGGDGQR,0.6985 ± 0.0012
15,GEKREGRKTRRD,0.608 ± 0.046
16,GERDWRAKRTRE,0.692 ± 0.055
17,GERGGKGHEQGL,0.623 ± 0.043
18,GERWSGVGEWVW,0.739 ± 0.014
19,GESRDEGRGVRA,0.638 ± 0.069
20,GEVIAYGSAWGL,0.647 ± 0.014
21,GEWGRVGVPGCS,0.718 ± 0.043
22,GEWRFCLGYRRR,0.647 ± 0.018
23,GFCCPMFLALFS,0.587 ± 0.022
24,GFCRWVRRDDCI,0.693 ± 0.032
25,GFCTVVGGVVIG,0.7202 ± 0.0016
26,GFFGDFIVFDFS,0.777 ± 0.022

row,Sequence,protein stability index
1,GFGFLQIVSGWL,0.608 ± 0.067
2,GFGGWIVCLGGG,0.669 ± 0.0096
3,GFGSEGQDMVGL,0.6658 ± 0.0027
4,GFGSTTTRLALV,0.662 ± 0.13
5,GFGVAGLVGKGV,0.662 ± 0.053
6,GFIYRLCRISIP,0.635 ± 0.025
7,GFKEGRSYWRFY,0.74 ± 0.034
8,GFLIGRLGEGSG,0.728 ± 0.023
9,GFLPCKVVRTCV,0.549 ± 0.055
10,GFLPSIVPPVPR,0.753 ± 0.02
11,GFLPVQGQGLVD,0.688 ± 0.045
12,GFRVSVGVVEGG,0.6716 ± 0.0056
13,GFSLSGRFFLRC,0.708 ± 0.013
14,GFSNKKNVPLTR,0.568 ± 0.066
15,GFSSVILMHMPC,0.7534 ± 0.0048
16,GFVFSRGLERPL,0.675 ± 0.062
17,GFVPGGGGRSSV,0.681 ± 0.0092
18,GFVRGDRSGGGG,0.72 ± 0.0085
19,GFVVCVFPLLLP,0.563 ± 0.029
20,GFWGSRTSGSIP,0.7335 ± 0.007
21,GGAEACSDRGGG,0.704 ± 0.018
22,GGAEGLHVRDVV,0.722 ± 0.051
23,GGAGGGVWGGGV,0.735 ± 0.014
24,GGAGGHCSHEWS,0.728 ± 0.039
25,GGAMYVSFFDKF,0.68 ± 0.021
